The values below are quoted from earlier work in US10472401B2, “Peptides and combination of peptides for use in immunotherapy against ovarian cancer and other cancers” (immatics biotechnologies GmbH, priority 2015, dated 2019).

This data set concerns ovarian cancer. To be noted: clinical studies.

B1: abagovomab (antibody, chains of the INN, looked up, V domains shown)
VH: QVKLQESGAELARPGASVKLSCKASGYTFTNYWMQWVKQRPGQGLDWIGAIYPGDGNTRYTHKFKGKATLTADKSSSTAYMQLSSLASEDSGVYYCARGEGNYAWFAYWGQGTTVTVSS
VL: DIELTQSPASLSASVGETVTITCQASENIYSYLAWHQQKQGKSPQLLVYNAKTLAGGVSSRFSGSGSGTHFSLKIKSLQPEDFGIYYCQHHYGILPTFGGGTKLEIK
notes: anti-CA-125 antibody
Take B1: the “clinical results in ovarian cancer patients” value was “promising results in phase II and III studies”.
